The target in data set [1] is T1, His-Pns6 (Rice dwarf phytoreovirus (RDV), UniProt Q85438 1-509).
T1 sequence: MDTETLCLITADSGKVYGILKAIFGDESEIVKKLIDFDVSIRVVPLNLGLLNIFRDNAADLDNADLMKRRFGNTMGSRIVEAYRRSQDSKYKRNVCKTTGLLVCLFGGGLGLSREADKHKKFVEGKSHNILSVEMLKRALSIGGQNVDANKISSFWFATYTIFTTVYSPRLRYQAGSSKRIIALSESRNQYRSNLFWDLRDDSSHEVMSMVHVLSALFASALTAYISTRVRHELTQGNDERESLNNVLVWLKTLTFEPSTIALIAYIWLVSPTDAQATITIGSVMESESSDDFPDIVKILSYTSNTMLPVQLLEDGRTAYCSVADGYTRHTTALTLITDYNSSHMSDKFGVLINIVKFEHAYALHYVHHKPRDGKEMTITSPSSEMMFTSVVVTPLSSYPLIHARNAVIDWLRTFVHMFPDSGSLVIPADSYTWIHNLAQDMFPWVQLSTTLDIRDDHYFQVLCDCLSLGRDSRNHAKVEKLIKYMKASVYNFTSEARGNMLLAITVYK
Kind of data set: northwestern blot; EMSA: 50 mM Tris-HCl pH 7.5, 50 mM NaCl, 10% glycerol, 20 min on ice; northwestern: 20 mM Tris-HCl pH 7.5, 50 mM NaCl, 0.1% Triton X-100, 1 mM DTT, 1 mM EDTA, 0.02% Ficoll 400 (renaturation and washes at 4 C), UV crosslinking after washing. The note with it: protein: recombinant; tags: His (pET28a); label: 32P 5' end when probe; 3' overhang 2 nt (UU) on both strands, 19 bp. A general note: A gel shift assay detects complexes by their altered migration in electrophoresis.

For data set [2], the target named is T1, His-Pns6. Kind of data set: competition EMSA; vs labeled S3-5; equal to other dsRNAs; EMSA: 50 mM Tris-HCl pH 7.5, 50 mM NaCl, 10% glycerol, 20 min on ice; northwestern: 20 mM Tris-HCl pH 7.5, 50 mM NaCl, 0.1% Triton X-100, 1 mM DTT, 1 mM EDTA, 0.02% Ficoll 400 (renaturation and washes at 4 C), UV crosslinking after washing. The settings on record: protein: recombinant, tags: His (pET28a), blunt.

For data set [3], the target named is T1, His-Pns6. In words: competition EMSA; vs labeled S3-5a; less than sense strands; EMSA: 50 mM Tris-HCl pH 7.5, 50 mM NaCl, 10% glycerol, 20 min on ice; northwestern: 20 mM Tris-HCl pH 7.5, 50 mM NaCl, 0.1% Triton X-100, 1 mM DTT, 1 mM EDTA, 0.02% Ficoll 400 (renaturation and washes at 4 C), UV crosslinking after washing. The note with it: protein: recombinant; tags: His (pET28a); label: 32P 5' end when probe.

The target of data set [4] is T1, His-Pns6. In words: competition EMSA; vs labeled S3-5a; highest; EMSA: 50 mM Tris-HCl pH 7.5, 50 mM NaCl, 10% glycerol, 20 min on ice; northwestern: 20 mM Tris-HCl pH 7.5, 50 mM NaCl, 0.1% Triton X-100, 1 mM DTT, 1 mM EDTA, 0.02% Ficoll 400 (renaturation and washes at 4 C), UV crosslinking after washing. The settings on record: protein: recombinant; tags: His (pET28a); label: 32P 5' end when probe.

Data set [5] has as its target T1, His-Pns6. Kind of data set: competition EMSA; vs labeled S3-5a; higher than antisense strands; EMSA: 50 mM Tris-HCl pH 7.5, 50 mM NaCl, 10% glycerol, 20 min on ice; northwestern: 20 mM Tris-HCl pH 7.5, 50 mM NaCl, 0.1% Triton X-100, 1 mM DTT, 1 mM EDTA, 0.02% Ficoll 400 (renaturation and washes at 4 C), UV crosslinking after washing. The settings on record: protein: recombinant; tags: His (pET28a); label: 32P 5' end when probe.

B1: dsR (dsRNA)
RNA 1: UUCUCCGAACGUGUCACGUUU
RNA 2: ACGUGACACGUUCGGAGAAUU
B1: the binding result in the data set with His-Pns6 [1] is given as “binds”.

B2: S3-3 (dsRNA)
RNA 1: UGUUUUGCUUGGUUCCUGAU
RNA 2: AUCAGGAACCAAGCAAAACA
Turning to B2, the binding result with His-Pns6 [2] was “binds”. Consider AUCAGGAACCAAGCAAAACA (ssRNA) [S3-3a], for which the binding result with His-Pns6 [3] is listed as “binds”. With GGCAAAAUCGAGCGAACAAU (ssRNA) [S3-5s], in the data set with His-Pns6 [4], the binding result is “binds”.

B3: S3-5 (dsRNA)
RNA 1: GGCAAAAUCGAGCGAACAAU
RNA 2: AUUGUUCGCUCGAUUUUGCC
On to B3, for which the binding result in the data set with His-Pns6 [2] (label: 32P 5' end when probe) is “binds”.

B4: S3m (dsRNA)
RNA 1: CAAUCAAUAUGCUCGCCCCA
RNA 2: UGGGGCGAGCAUAUUGAUUG
In the case of B4, the binding result in the data set with His-Pns6 [2] is “binds”. Turning to AUUGUUCGCUCGAUUUUGCC (ssRNA) [S3-5a], in the data set with His-Pns6 [3], the binding result was “binds”. With UGUUUUGCUUGGUUCCUGAU (ssRNA) [S3-3s], the binding result with His-Pns6 [5] is listed as “binds”.
